The results in this text go back to patent US20230184787A1 (NORDIC BIOSCIENCE A S, published 2023).

Sequences and labels used below:
B1: selection peptide KLGHPDTLNQ (peptide)
peptide: KLGHPDTLNQ
notes: also called calibrator peptide
B2: CPa9-HNE antibody (antibody, mouse IgG1, kappa, V domains shown)
VH: QVQLQQSGPELVKPGASVKMSCKASGYTFTDHVINWVRQRTGQGLEWIGEIYPGSGSTYYNEKFKGKATLTADKSSNTAYMQLSSLTSEDSAVYFCAWFAYWGQGTLVTVSA
VL: DIVMTQSPSSLSVSAGEKVTMSCKSSQSLLNSGNQKNYLAWYQQKPGQPPKLLIYGASTRESGVPDRFTGSGSGTDFTLTISSVQAEDLAVYYCLNDHSYPYTFGGGTKLEIKR
notes: also called monoclonal antibody targeting CPa9-HNE

For the assay “CPa9-HNE antibody”, the target named is B2. Briefly: competitive ELISA: standard (calibrator) peptide in solution competes with …-K-Biotin on streptavidin plates for the CPa9-HNE antibody; mean of the standard curves.
Assay [1] has as its target T1, human neutrophil elastase (human, UniProt P08246 30-247, limits assumed).
T1 construct: also called HNE
T1 sequence (looked up): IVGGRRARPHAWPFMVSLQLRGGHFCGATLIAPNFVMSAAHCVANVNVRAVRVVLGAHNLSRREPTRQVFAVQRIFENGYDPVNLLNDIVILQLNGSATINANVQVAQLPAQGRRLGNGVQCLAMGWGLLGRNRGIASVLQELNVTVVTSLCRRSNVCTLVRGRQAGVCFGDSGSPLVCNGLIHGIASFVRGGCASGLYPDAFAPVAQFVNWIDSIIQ
As to the kind of experiment: competitive ELISA (CPa9-HNE assay) on in vitro cleavage samples and controls, FIG. 2C. As for the experimental part:
(§1) Samples were diluted in incubation buffer containing 1% bovine serum albumin (Sigma Aldrich, cat. No. a-7906, 98 purity) to maintain protein stability and for blocking. Samples and controls were added to the wells and incubated with the primary monoclonal antibody against the HNE-generated neo-epitope (CPa9-HNE), at 20° C. for 1 hour and agitated at 300 rpm. Unbound primary antibody and sample were discarded, and the wells were washed with washing buffer. Subsequently, HRP conjugated AffiniPure Rabbit anti-mouse IgG secondary antibodies (Jackson cat. No 315-035-045) was added to the wells and incubated for 1 hour at 20° C. Unbound secondary antibody was discarded by washing the wells in washing buffer. Chemiluminescence substrate (Roche Diagnostic's cat. No. 11582950001) was added to the well (100 μl/well), and the plates were incubated for 3 minutes at room temperature before reading the plates. Finally, an ELISA reader (VersaMAX; Molecular Devices, Wokingham Berkshire, UK) was used to quantify the relative light units (RLU) emitted from the plates […]. A standard curve was plotted using a 4-parametric mathematical fit model. […]
Background: ELISA stands for enzyme-linked immunosorbent assay.

The target of assay [2] is T2, full-length human calprotectin (heterodimer of S100A9 and S100A8) (Homo sapiens, UniProt P06702 1-114; P05109 1-93).
T2 construct: also called intact full-length human calprotectin; purified calprotectin
T2 sequence (looked up) 1: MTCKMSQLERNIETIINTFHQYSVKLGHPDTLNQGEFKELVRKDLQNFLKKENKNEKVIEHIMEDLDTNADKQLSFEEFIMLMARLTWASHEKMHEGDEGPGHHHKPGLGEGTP
T2 sequence (looked up) 2: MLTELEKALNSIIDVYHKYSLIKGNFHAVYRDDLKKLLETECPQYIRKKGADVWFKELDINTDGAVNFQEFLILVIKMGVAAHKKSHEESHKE
Described as above. As for the experimental part:
as §1

Assay [3] addresses B1. Briefly: competitive ELISA (CPa9-HNE assay), peptide specificity test, FIG. 2B. As for the experimental part:
(§2) No. 11940279, Hvidovre, Denmark) were coated with a biotinylated antigen ([…]-K-Biotin (SEQ ID NO: 27)) by incubation with the biotinylated antigen for 30 minutes at room temperature. Unbound biotinylated coater antigen was discarded, and the wells were washed with washing buffer (25 mM TRIZMA, 50 mM NaCl, 0.036% Bronidox L5, 0.1% Tween 20) using a standardized ELISA plate washing machine (BioTek® Instruments, Microplate washer, ELx405 Select CW, Winooski, USA). Samples were diluted in incubation buffer containing 1% bovine serum albumin (Sigma Aldrich, cat. No. a-7906, 98 purity) to maintain protein stability and for blocking. Samples and controls were added to the wells and incubated with the primary monoclonal antibody against the HNE-generated neo-epitope (CPa9-HNE), at 20° C. for 1 hour and agitated at 300 rpm. Unbound primary antibody and sample were discarded, and the wells were washed with washing buffer. Subsequently, HRP conjugated AffiniPure Rabbit anti-mouse IgG secondary antibodies (Jackson cat. No 315-035-045) was added to the wells and incubated for 1 hour at 20° C. Unbound secondary antibody was discarded by washing the wells in washing buffer. Chemiluminescence substrate (Roche Diagnostic's cat. No. 11582950001) was added to the well (100 μl/well), and the plates were incubated for 3 minutes at room temperature before reading the plates. Finally, an ELISA reader (VersaMAX; Molecular Devices, Wokingham Berkshire, UK) was used to quantify the relative light units (RLU) emitted from the plates […]. A standard curve was plotted using a 4-parametric mathematical fit model.
(§3) A monoclonal antibody (also referred to herein as the CPa9-HNE antibody) targeting CPa9-HNE (the HNE-generated N-terminus neo-epitope of NBH-222) was developed and used in an ELISA protocol as described above (also referred to hereinafter as the CPa9-HNE assay), and the specificity of this antibody when used in this immunoassay was tested against the selection peptide and the elongated peptide, truncated peptide and non-sense peptide (having the sequences set out in Table 1).

Assay [4] addresses T3, truncated peptide LGHPDTLNQ (Homo sapiens).
T3 construct: also called N-truncated shortened version
T3 peptide: LGHPDTLNQ
Described as above. As for the experimental part:
as §2, §3

Assay [5] addresses T4, non-sense peptide YRDDLKKLLET (Homo sapiens).
T4 construct: also called NBH-225
T4 peptide: YRDDLKKLLET
The assay is described as above. On the procedure: as §2, §3

Assay [6] concerns the target T5, elongated peptide VKLGHPDTLNQ (Homo sapiens).
T5 construct: also called N-extended elongated version
T5 peptide: VKLGHPDTLNQ
The assay is described as above. On the procedure: as §2, §3

Usually IC50 stands for the midpoint of a concentration-inhibition curve. For the molecule B1, the IC50 in the assay with CPa9-HNE antibody is 0.0783 µg/mL.
For the molecule B2, the binding result is on record as “no binding” in assay [1]; “no binding” in assay [2]; “binds” in assay [3]; “no binding” in assay [4]; “no binding” in assay [5]; “no binding” in assay [6].
